Columns and labels:
c-Src SH2 = assay: SH2 binding enrichment of the phosphorylated peptide, bacterial display (enrichment ratio); higher = better substrate or ligand; peptides without Tyr show the background
Grb2 SH2 = Grb2 SH2 (UniProt P62993); assay: as above
SHP2-C SH2 = assay: as above
c-Abl (mouse) = assay: phosphorylation enrichment, bacterial display (enrichment ratio); higher = better substrate or ligand; peptides without Tyr show the background
c-Src = assay: as above
FGFR1 = FGFR1 (UniProt P11362); assay: as above
Fer (mouse) = assay: as above
MERTK = MERTK (UniProt Q12866); assay: as above
Sequence of MERTK (Q12866 whole entry, looked up): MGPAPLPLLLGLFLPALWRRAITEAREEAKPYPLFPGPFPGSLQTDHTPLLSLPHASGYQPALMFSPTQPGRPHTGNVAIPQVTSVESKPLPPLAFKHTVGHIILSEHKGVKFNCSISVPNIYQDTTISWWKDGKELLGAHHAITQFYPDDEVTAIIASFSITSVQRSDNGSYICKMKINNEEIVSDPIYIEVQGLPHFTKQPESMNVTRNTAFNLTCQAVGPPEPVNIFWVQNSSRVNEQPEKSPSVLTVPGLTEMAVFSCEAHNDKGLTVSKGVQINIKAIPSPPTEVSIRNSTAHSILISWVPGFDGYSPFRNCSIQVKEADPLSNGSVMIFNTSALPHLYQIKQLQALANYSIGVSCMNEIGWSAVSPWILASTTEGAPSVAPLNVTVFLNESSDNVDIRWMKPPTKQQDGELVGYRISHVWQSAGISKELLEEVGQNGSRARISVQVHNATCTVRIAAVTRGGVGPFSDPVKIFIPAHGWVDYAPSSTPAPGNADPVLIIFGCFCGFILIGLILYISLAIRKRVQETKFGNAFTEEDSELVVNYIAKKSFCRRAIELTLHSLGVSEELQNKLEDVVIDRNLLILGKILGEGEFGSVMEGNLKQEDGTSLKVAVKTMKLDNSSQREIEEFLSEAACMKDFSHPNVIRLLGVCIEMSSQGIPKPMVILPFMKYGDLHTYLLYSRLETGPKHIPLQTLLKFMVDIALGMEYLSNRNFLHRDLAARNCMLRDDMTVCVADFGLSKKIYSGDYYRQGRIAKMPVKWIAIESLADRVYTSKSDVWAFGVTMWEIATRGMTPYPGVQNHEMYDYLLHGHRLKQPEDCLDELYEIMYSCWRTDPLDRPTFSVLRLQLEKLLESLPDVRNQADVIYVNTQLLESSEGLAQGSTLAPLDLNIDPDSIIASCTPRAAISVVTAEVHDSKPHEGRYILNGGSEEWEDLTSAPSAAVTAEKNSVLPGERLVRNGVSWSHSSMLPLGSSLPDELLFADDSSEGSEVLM

EPHB2 = EPHB2 (UniProt P29323); assay: as above
Sequence of EPHB2 (P29323 whole entry, looked up): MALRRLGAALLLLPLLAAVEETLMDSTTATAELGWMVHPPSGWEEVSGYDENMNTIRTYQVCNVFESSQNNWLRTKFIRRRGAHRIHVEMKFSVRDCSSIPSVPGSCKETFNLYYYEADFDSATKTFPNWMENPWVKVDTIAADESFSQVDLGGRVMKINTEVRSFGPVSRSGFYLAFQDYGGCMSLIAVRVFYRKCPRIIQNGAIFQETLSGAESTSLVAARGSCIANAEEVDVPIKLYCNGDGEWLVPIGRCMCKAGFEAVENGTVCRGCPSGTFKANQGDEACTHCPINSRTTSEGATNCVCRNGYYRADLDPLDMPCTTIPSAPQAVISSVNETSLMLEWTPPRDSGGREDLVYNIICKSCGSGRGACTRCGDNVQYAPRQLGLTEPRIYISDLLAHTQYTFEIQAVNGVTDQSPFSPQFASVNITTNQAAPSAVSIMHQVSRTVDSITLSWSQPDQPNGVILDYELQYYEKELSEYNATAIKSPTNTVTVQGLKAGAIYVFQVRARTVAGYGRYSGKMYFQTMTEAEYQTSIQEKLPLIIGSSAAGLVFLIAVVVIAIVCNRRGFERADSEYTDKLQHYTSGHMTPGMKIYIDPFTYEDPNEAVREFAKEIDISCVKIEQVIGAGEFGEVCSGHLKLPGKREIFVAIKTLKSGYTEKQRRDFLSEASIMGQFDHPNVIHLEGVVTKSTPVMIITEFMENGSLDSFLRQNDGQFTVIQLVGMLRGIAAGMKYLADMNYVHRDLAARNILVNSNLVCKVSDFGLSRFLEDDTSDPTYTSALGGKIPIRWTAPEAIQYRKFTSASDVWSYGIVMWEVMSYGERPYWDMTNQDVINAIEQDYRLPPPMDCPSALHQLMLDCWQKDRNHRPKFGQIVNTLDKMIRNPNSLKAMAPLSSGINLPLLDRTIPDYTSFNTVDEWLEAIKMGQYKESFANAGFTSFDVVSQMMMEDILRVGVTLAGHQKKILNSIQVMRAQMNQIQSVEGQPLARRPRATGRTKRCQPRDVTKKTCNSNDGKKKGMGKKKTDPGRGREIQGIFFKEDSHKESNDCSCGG

Fes = Fes (UniProt P07332); assay: as above
Hck = Hck (UniProt P08631); assay: as above
Sequence of Hck (P08631 whole entry, looked up): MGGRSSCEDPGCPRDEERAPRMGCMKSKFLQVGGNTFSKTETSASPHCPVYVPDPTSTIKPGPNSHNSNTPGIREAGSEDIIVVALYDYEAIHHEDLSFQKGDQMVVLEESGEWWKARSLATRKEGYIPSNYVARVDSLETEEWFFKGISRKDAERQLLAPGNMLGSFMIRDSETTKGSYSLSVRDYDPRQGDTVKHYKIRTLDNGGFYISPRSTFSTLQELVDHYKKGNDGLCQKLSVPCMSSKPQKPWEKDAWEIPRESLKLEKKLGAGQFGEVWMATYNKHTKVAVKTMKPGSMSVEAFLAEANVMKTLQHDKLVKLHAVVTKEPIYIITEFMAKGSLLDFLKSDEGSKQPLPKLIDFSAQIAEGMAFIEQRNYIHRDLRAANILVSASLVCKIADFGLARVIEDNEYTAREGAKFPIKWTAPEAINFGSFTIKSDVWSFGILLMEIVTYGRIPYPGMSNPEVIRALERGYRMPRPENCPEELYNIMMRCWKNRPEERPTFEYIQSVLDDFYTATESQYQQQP

FGFR3 = FGFR3 (UniProt P22607); assay: as above
Sequence of FGFR3 (P22607 whole entry, looked up): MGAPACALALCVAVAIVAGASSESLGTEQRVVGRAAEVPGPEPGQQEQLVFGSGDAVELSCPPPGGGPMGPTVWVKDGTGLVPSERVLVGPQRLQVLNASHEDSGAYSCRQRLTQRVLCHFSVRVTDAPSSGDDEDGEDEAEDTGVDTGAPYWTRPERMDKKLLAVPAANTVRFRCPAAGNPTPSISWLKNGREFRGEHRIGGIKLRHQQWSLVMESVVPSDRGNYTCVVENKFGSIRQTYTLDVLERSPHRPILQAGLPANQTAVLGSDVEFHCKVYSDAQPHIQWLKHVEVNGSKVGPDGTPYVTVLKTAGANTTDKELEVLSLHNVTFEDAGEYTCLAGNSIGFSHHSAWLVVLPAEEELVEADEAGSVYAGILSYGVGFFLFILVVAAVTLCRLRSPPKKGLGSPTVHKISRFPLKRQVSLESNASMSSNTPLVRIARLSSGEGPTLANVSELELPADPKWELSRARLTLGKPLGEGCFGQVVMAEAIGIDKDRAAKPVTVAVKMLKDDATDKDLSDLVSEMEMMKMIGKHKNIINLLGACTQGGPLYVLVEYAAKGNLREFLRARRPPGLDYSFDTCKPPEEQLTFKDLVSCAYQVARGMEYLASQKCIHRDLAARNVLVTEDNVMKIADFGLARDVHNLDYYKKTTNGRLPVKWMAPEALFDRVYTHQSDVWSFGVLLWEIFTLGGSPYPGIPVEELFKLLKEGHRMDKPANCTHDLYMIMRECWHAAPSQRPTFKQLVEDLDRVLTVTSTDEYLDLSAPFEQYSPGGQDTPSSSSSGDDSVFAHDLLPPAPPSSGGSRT

Jak2 = Jak2 (UniProt O60674); assay: as above
Fyn = Fyn (UniProt P06241); assay: as above
Sequence of Fyn (P06241 whole entry, looked up): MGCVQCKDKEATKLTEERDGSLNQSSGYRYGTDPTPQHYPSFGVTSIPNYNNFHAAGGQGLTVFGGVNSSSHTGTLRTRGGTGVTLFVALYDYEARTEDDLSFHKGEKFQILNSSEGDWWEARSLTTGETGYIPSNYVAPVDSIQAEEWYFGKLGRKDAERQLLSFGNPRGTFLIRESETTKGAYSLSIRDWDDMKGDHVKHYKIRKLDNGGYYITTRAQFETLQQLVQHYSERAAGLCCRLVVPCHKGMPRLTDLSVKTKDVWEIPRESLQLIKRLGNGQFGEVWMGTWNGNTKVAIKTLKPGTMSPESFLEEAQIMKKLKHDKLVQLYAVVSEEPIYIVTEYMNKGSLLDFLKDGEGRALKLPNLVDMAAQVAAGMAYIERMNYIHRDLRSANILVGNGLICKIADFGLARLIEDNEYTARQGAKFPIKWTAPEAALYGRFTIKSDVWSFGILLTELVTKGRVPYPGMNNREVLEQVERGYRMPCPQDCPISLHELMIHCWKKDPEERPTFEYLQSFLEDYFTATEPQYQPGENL

EPHB1 = EPHB1 (UniProt P54762); assay: as above
Sequence of EPHB1 (P54762 whole entry, looked up): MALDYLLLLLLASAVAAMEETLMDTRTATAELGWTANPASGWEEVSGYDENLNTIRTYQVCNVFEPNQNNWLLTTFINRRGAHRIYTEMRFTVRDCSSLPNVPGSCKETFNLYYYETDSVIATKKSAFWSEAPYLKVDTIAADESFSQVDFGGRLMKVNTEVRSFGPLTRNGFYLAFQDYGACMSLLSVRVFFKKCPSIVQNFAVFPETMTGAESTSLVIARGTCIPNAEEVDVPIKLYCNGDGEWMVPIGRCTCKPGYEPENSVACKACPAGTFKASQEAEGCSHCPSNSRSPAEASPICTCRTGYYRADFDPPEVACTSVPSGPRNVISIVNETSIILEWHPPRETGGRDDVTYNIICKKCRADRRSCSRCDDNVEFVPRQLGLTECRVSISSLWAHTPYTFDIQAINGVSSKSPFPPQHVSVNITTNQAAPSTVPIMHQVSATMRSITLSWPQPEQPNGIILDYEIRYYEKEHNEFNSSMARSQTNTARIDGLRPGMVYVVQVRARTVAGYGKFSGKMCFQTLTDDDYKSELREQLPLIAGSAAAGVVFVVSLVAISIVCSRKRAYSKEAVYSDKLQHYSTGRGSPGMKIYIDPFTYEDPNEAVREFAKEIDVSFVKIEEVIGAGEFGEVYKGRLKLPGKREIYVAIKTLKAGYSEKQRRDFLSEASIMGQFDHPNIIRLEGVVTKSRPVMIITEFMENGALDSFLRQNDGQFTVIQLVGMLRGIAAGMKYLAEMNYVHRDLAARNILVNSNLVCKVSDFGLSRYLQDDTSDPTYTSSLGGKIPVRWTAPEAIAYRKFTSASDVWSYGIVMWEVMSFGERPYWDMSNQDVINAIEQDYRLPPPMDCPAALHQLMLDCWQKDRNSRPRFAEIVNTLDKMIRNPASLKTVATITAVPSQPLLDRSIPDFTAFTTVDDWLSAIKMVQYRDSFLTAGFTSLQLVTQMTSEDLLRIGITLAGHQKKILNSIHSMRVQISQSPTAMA

AncSZ = assay: as above
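For SH2 binding enrichment of the phosphorylated peptide, bacterial display in this document: peptide library displayed on the E. coli surface as eCPX fusions, selected cells deep-sequenced, score is each peptide's frequency after selection divided by its frequency in the input.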
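For phosphorylation enrichment, bacterial display in this document: 11-residue human phosphosite peptides and single-mutation variants displayed on the E. coli surface, counted by deep sequencing, each peptide's frequency after selection divided by its frequency in the unselected input library; frequency after pTyr selection over input frequency; kinase dosed for 20-30% of maximal phosphorylation in three min.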

| Sequence | SH2 binding enrichment (c-Src SH2) | SH2 binding enrichment (Grb2 SH2) | SH2 binding enrichment (SHP2-C SH2) | phosphorylation enrichment (c-Abl (mouse)) | phosphorylation enrichment (c-Src) | phosphorylation enrichment (FGFR1) | phosphorylation enrichment (Fer (mouse)) | phosphorylation enrichment (MERTK) | phosphorylation enrichment (EPHB2) | phosphorylation enrichment (Fes) | phosphorylation enrichment (Hck) | phosphorylation enrichment (FGFR3) | phosphorylation enrichment (Jak2) | phosphorylation enrichment (Fyn) | phosphorylation enrichment (EPHB1) | phosphorylation enrichment (AncSZ) |
| --- | --- | --- | --- | --- | --- | --- | --- | --- | --- | --- | --- | --- | --- | --- | --- | --- |
| RPASVYTKRCS [CPT2_Y508] | 0.622 | 1.1 | 0.643 | 0.687 | 0.476 | 0.586 | 0.459 | 0.442 | 0.603 | 0.826 | 0.418 | 0.533 | 0.444 | 0.623 | 0.377 | 0.781 |
| RPSRWYQFPVA [ANOS1_Y259_R262P] | 1.71 | 1.79 | 2.07 | 0.657 | 0.648 | 2.41 | 0.692 | 7.23 | 0.433 | 0.889 | 0.5 | 1.38 | 0.914 | 0.496 | 0.403 | 2.95 |
| RQGKDYIGAIP [KDR_Y951_V952I] | 0.428 | 0.904 | 0.646 | 1.88 | 0.837 | 0.596 | 0.462 | 0.813 | 0.62 | 0.764 | 0.696 | 0.547 | 1.14 | 0.715 | 0.399 | 0.804 |
| RRAVKYLQMVG [AVPR2_Y117_C112R] | 0.525 | 0.84 | 0.695 | 0.961 | 0.737 | 0.52 | 0.431 | 0.727 | 1.01 | 0.978 | 0.674 | 0.629 | 0.887 | 0.778 | 0.815 | 1.13 |
| RRIEKYVDQGK [IRAK3_Y61_H57R] | 0.535 | 0.72 | 0.333 | 0.56 | 0.483 | 0.736 | 0.326 | 0.571 | 0.322 | 0.662 | 0.445 | 0.416 | 0.419 | 0.516 | 0.615 | 0.88 |
| RSFLSYFTSHV [NEFL_Y442_P440L_YF] | 0.697 | 0.893 | 1.3 | 1.05 | 0.879 | 0.752 | 0.677 | 0.826 | 0.743 | 1.8 | 0.915 | 1 | 1.1 | 0.642 | 0.759 | 1.54 |
| RSRSPYSPVLR [CDK13_Y399] | 0.66 | 1.2 | 1.47 | 0.763 | 0.701 | 1.06 | 0.423 | 0.674 | 0.477 | 0.854 | 0.628 | 0.584 | 0.563 | 0.551 | 0.476 | 0.917 |
| RSRSSYTHSLN [MYCT1_Y116_G119S] | 0.435 | 0.786 | 0.348 | 0.97 | 0.938 | 0.575 | 0.381 | 0.762 | 0.537 | 0.755 | 0.495 | 0.514 | 0.948 | 0.63 | 0.504 | 0.832 |
| RVNSAYQEKVS [ACAN_Y100_D102E] | 0.448 | 1.08 | 0.529 | 0.489 | 0.291 | 0.678 | 0.313 | 0.5 | 0.397 | 0.667 | 0.49 | 0.423 | 0.538 | 0.378 | 0.413 | 0.407 |
| RVSSVYTRSTG [CCR5_Y339_A335V] | 0.517 | 1.17 | 1.1 | 0.873 | 0.853 | 0.936 | 0.984 | 0.665 | 0.867 | 1.22 | 1.13 | 0.945 | 1.02 | 1.1 | 0.945 | 1.18 |
| RYVSRYIYNRE [HLA-DQB1_Y62_T60S] | 0.368 | 0.659 | 0.245 | 0.666 | 1.08 | 0.658 | 0.844 | 0.993 | 0.95 | 1.11 | 0.551 | 0.739 | 0.92 | 0.829 | 0.922 | 1.29 |
| RYVTRSIYNRE [HLA-DQB1_Y62_Y62S] | 0.543 | 0.802 | 0.94 | 0.735 | 0.705 | 0.622 | 0.495 | 0.601 | 0.389 | 1.1 | 0.682 | 0.327 | 1.1 | 0.553 | 0.226 | 0.772 |
| SAASGYSDVTD [DTX2_Y425_T421A] | 6.28 | 1.98 | 0.979 | 0.446 | 0.338 | 0.633 | 0.535 | 0.294 | 0.589 | 0.95 | 0.458 | 0.569 | 0.963 | 0.232 | 0.646 | 0.866 |
| SCTFTCLLGDR [ETHE1_Y38_Y38C] | 0.945 | 1.01 | 0.98 | 0.737 | 0.387 | 0.488 | 0.458 | 0.465 | 0.536 | 1.03 | 0.414 | 0.669 | 0.84 | 0.458 | 0.45 | 0.916 |
| SDPIIYTLENV [ADGRE1_Y534_I539V] | 0.554 | 0.88 | 0.682 | 0.723 | 4.92 | 0.577 | 5.1 | 1.09 | 0.576 | 1.38 | 1.61 | 0.663 | 0.945 | 7 | 0.5 | 1.1 |
| SDQPDYDSVAS [GIT2_Y392_N387S] | 0.526 | 0.783 | 0.735 | 0.729 | 0.525 | 0.625 | 0.739 | 0.499 | 0.726 | 1.27 | 0.594 | 0.693 | 1.09 | 0.565 | 0.655 | 1.29 |
| SDVNKYSTAFG [GJB3_Y16_G12D] | 0.617 | 0.777 | 0.553 | 0.509 | 0.361 | 0.348 | 0.462 | 0.393 | 0.387 | 0.67 | 0.386 | 0.459 | 0.451 | 0.42 | 0.467 | 0.521 |
| SDYYAYSPVQE [H6PD_Y449_R453Q] | 1.3 | 1.01 | 0.971 | 8.16 | 5.44 | 15.8 | 10.7 | 9.08 | 21.6 | 0.952 | 6.3 | 14.9 | 9.08 | 8.25 | 16.4 | 6.17 |
| SEEVNYATLTF [CLEC12B_Y7_T6N] | 0.391 | 0.762 | 3.03 | 1.38 | 1.41 | 1.25 | 1.45 | 0.905 | 1.46 | 1.37 | 1.66 | 1.4 | 1.12 | 1.33 | 1.98 | 1.1 |
| SFNNKYGMVAQ [APOB_Y276_K273N_YF] | 0.435 | 0.852 | 0.68 | 0.462 | 0.384 | 0.4 | 0.399 | 0.431 | 0.504 | 0.51 | 0.422 | 0.469 | 0.509 | 0.395 | 0.332 | 0.542 |
| SGADSYEMEED [EGFR_Y316_C311S] | 0.728 | 0.979 | 0.701 | 0.749 | 0.561 | 0.822 | 0.52 | 0.722 | 0.585 | 1.16 | 0.668 | 0.871 | 1.12 | 0.625 | 0.574 | 1.29 |
| SGDVQYRSSVR [FREM2_Y2158_T2153S] | 0.514 | 0.812 | 0.883 | 0.481 | 0.364 | 0.378 | 0.377 | 0.348 | 0.332 | 0.608 | 0.378 | 0.432 | 0.396 | 0.375 | 0.472 | 0.442 |
| SHSMRYFYTAV [HLA-C_Y31_D33Y] | 2 | 1.28 | 1.97 | 0.691 | 0.928 | 0.778 | 0.587 | 3.29 | 0.689 | 1.26 | 0.631 | 0.893 | 1.2 | 0.611 | 0.71 | 1.04 |

Now from value to sequence, other results behind:

| SH2 binding enrichment (c-Src SH2) | SH2 binding enrichment (Grb2 SH2) | SH2 binding enrichment (SHP2-C SH2) | Sequence | phosphorylation enrichment (c-Abl (mouse)) | phosphorylation enrichment (c-Src) | phosphorylation enrichment (FGFR1) | phosphorylation enrichment (Fer (mouse)) | phosphorylation enrichment (MERTK) | phosphorylation enrichment (EPHB2) | phosphorylation enrichment (Fes) | phosphorylation enrichment (Hck) | phosphorylation enrichment (FGFR3) | phosphorylation enrichment (Jak2) | phosphorylation enrichment (Fyn) | phosphorylation enrichment (EPHB1) | phosphorylation enrichment (AncSZ) |
| --- | --- | --- | --- | --- | --- | --- | --- | --- | --- | --- | --- | --- | --- | --- | --- | --- |
| 0.797 | 1.01 | 0.712 | RRIHNYRGHLW [VHL_Y112_S111N] | 0.609 | 0.607 | 0.433 | 0.27 | 0.597 | 0.421 | 0.738 | 0.509 | 0.511 | 0.501 | 0.481 | 0.714 | 0.577 |
| 1.65 | 0.662 | 0.587 | RSIGEYDVLRG [PRKDC_Y2936] | 1.55 | 0.974 | 0.36 | 0.428 | 0.536 | 0.779 | 0.786 | 3.99 | 0.394 | 0.73 | 0.671 | 0.738 | 0.795 |
| 0.443 | 0.9 | 0.891 | SAAAIYTVRHP [PMP22_Y117] | 0.67 | 6.41 | 0.487 | 0.474 | 1.92 | 0.516 | 0.601 | 7.82 | 0.43 | 0.506 | 5.3 | 0.54 | 0.615 |
| 0.535 | 0.869 | 0.798 | SADIAYNFRHG [PAH_Y166_F161S_YF] | 0.789 | 0.457 | 0.433 | 0.348 | 0.374 | 0.33 | 0.673 | 0.423 | 0.469 | 0.574 | 0.416 | 0.447 | 0.587 |
| 0.723 | 0.755 | 0.535 | SDYSRYARTSI [TERT_Y949_S948R] | 0.46 | 0.444 | 0.428 | 0.388 | 0.444 | 0.495 | 0.581 | 0.428 | 0.351 | 0.549 | 0.443 | 0.434 | 0.59 |
| 0.678 | 0.767 | 0.623 | SESSYYKSLNL [NGEF_Y289_A286S] | 0.561 | 0.586 | 1.01 | 0.624 | 0.913 | 0.57 | 0.756 | 0.627 | 0.841 | 0.852 | 0.657 | 0.503 | 0.876 |
| 0.572 | 0.979 | 0.769 | SGDDGYAKDAQ [TENM4_Y1530_K1535Q] | 0.575 | 0.379 | 0.45 | 0.557 | 0.418 | 0.394 | 0.866 | 0.493 | 0.615 | 0.832 | 0.508 | 0.446 | 0.818 |
| 0.401 | 0.765 | 0.765 | SGGMDYGMVGG [TNRC6B_Y1382] | 0.52 | 1.95 | 0.404 | 0.389 | 0.384 | 0.806 | 0.574 | 0.702 | 0.494 | 0.517 | 2 | 0.471 | 0.571 |
| 0.487 | 0.787 | 0.505 | SGPRRYTMAAL [TTR_Y125_I127M] | 0.555 | 0.533 | 0.423 | 0.383 | 0.44 | 0.466 | 0.611 | 0.488 | 0.459 | 0.601 | 0.416 | 0.396 | 0.677 |
| 0.564 | 0.627 | 0.52 | SGSFRYGSSFE [SELE_Y390_C394F] | 0.489 | 0.425 | 0.419 | 0.484 | 0.426 | 0.438 | 0.686 | 0.389 | 0.528 | 0.629 | 0.526 | 0.463 | 0.692 |

— the supplement of paper PMC10065799, “High-throughput profiling of sequence recognition by tyrosine kinases and SH2 domains using bacterial peptide display” (eLife, 2023)
